# Measured values reported in the RNAGym collection of RNA variant scans (doi:10.7554/elife.90254).
# B1: LINE1-full (parent)
# chain: UACGUAGGUGGUUUUCCCCUGAUAGUGCUAAGGGGGCCUGGAAGUUUGGACUGGGCAGAGCUCAACACAGCGUGGCAAAGUGGCUGUGGCUAGACUGCCUCUCUGGAUUCCUCGUCACUCAGCAGGGCAUCUCUGAGAGAAAUGCC
# Variants of: B1
# Assay: self-cleavage, relative activity (ratio to wild type); higher = more cleavage; in vitro, sequencing; the parent is a self-cleaving ribozyme
row,Variant,self-cleavage
1,C90G A136U,0.04
2,A92U U130C,0.73
3,A92U U130G,1.61
4,A92U A124G,0.5
5,A94G C116U,0.28
6,A92U A138U,0.53
7,A92U A138G,0.75
8,C90U A124G,0.02
9,C90U A124U,0.02
10,A94C A124G,0.02
11,A94C A124U,0
12,A94U C101U,0.31
13,U91A U104C,0.42
14,G88A A141G,0.08
15,A92U A94U,0.32
16,U96A U108C,0.08
17,C95A U115C,0.11
18,A94U U112C,0.37
19,A94U U112A,0.31
20,C95A A138G,0.09
21,G88A G97A,0.04
22,G88U U115A,0.07
23,G88A U119A,0.06
24,U91A A94G,0.09

row,Variant,self-cleavage
1,C95U A117G,0.14
2,G89C A107G,0.11
3,A94G U132C,0.34
4,U91C A107G,0.73
5,U96A C113U,0.06
6,A92U U108C,1.2
7,U91C A140G,0.75
8,C90U G114U,0.03
9,C95U A138U,0.2
10,U91C G114A,0.57
11,U91C A124U,0
12,U91C A124G,0.33
13,A92C G93U,0.06
14,A94U U134A,0.25
15,A94U U134G,0.2
16,A94U U134C,0.32
17,G88A U96A,0.03
18,U91C C110U,0.66
19,G93A A138G,0.06
20,U96A C118A,0.02
21,G93A A121U,0.06
22,G88A A142G,0.06
23,A92G U132A,0.05
24,G88A,0.04

row,Variant,self-cleavage
1,G88C,0.11
2,G88U,0.05
3,C95U A129G,0.19
4,U91C C128U,1
5,G93U U96C,0.06
6,A94G U143C,0.43
7,A92U U102C,0.3
8,A92U U102A,0.79
9,G88A G135A,0.08
10,A94G A141G,0.25
11,A92G G126A,0.13
12,U91C A136U,0.58
13,G89A U109C,0.04
14,A94U U132C,0.52
15,G89A A142G,0.03
16,U91C U96C,0.13
17,G93U U108C,0.05
18,A94U G144A,0.4
19,A92C U132C,0
20,A94U U104C,0.55
21,A94U U104A,0.19
22,A94G A129G,0.11
23,A92G C120U,0.07
24,A94C A129G,0

row,Variant,self-cleavage
1,C90U A141G,0.03
2,A92C C128U,0.31
3,G88A U112A,0.08
4,C95U A107G,0.21
5,C95U C118A,0.13
6,A92U G106U,0.62
7,C90A U134A,0.04
8,C95U U108C,0.42
9,A94G A117C,0.26
10,A94G A117G,0.36
11,C95U U102C,0.14
12,A94G U130A,0.34
13,A94G U130C,0.36
14,A94C U130C,0.09
15,C95U U115C,0.54
16,U96A G135A,0.03
17,U91A A141G,0.51
18,G93A A107G,0.06
19,A94U U119C,0.28
20,C95A U108C,0
21,A92G A138G,0.08
22,U91C U112C,0.59
23,A94C A136G,0.07
24,U91A U96C,0.12

row,Variant,self-cleavage
1,A92G A136G,0.08
2,A92G A136U,0.05
3,A92U A142G,0.66
4,G89A A138U,0.05
5,G93A U119C,0.04
6,G93A U119A,0.03
7,C90G U109C,0.07
8,G93U U102A,0.02
9,A92U C128U,0.47
10,U96A C116A,0.21
11,G88U A140G,0.04
12,C95A U102C,0.11
13,U96A G127A,0.06
14,U91A U115C,0.78
15,U91G A140G,0.02
16,A94G G114A,0.23
17,G88C A141G,0.14
18,C95U U104A,0.1
19,A94G U112C,0.13
20,A94G C99U,0.19
21,A92U A136G,0.94
22,A94C A140G,0.04
23,G88A U102C,0.06
24,G88A U102A,0.04

row,Variant,self-cleavage
1,A94G C95A,0.07
2,U96A U100C,0.08
3,C90U U108C,0.03
4,C90U U108A,0.05
5,U91C C98U,0.19
6,U91G A138G,0
7,G88A A140G,0.08
8,A92U G139A,0.76
9,U91A U130G,1.24
10,A94U C120G,0.3
11,U96A U130C,0.06
12,U96A U130A,0.05
13,U91C U130C,0.77
14,G93U A141G,0.03
15,G93U A141U,0.02
16,G88A A121U,0.04
17,A92G U134A,0
18,A92U U104C,0.96
19,C95U U132C,0.21
20,A94U U100C,0.33
21,A92G U100C,0.14
22,C95A C146U,0.08
23,U91C C133A,0.74
24,A94G C145U,0.17

row,Variant,self-cleavage
1,U96A G139C,0.04
2,U91C C123U,0.8
3,A94U A107U,0.32
4,A92G A107G,0.17
5,U96A A121U,0.05
6,A94U U115A,0.31
7,A94U U115C,0.45
8,U96A U109A,0.05
9,U91C G106A,0.95
10,A92G U143C,0.36
11,G88U G126A,0
12,U91G C111U,0.02
13,A94U U102A,0.33
14,U96A U115A,0.08
15,U96A U115C,0.05
16,A94G G127U,0.09
17,C90G U134A,0.03
18,A92G U96A,0.13
19,U96A U104C,0.07
20,U96A U104A,0.07
21,A94U C116U,0.33
22,A94U A136U,0.29
23,G93A C101A,0.04
24,U96A A140G,0.06

row,Variant,self-cleavage
1,U96A A140U,0
2,U91C U134A,0.57
3,U91C U134C,0.87
4,U96A U119C,0.11
5,U96A U119A,0.09
6,G89A U112A,0.05
7,C90U U96A,0.06
8,U91C U100A,0.15
9,A92G A142G,0.14
10,G89A A136G,0.04
11,A94U U130A,0.23
12,A94G C146U,0.47
13,A94G U109A,0.39
14,A94G U109C,0.07
15,U91C A117U,0.92
16,U91C A117G,0.78
17,G93U A142U,0.04
18,G89C G144A,0.05
19,U91C U109A,0.48
20,G88A A129G,0.07
21,G89A U130C,0.02
22,G93A U115C,0.04
23,A94G C128U,0.22
24,U96A G97A,0.09

row,Variant,self-cleavage
1,U87G U100C,0.28
2,A92G A121U,0.09
3,A92G A121G,0.11
4,G89U U109A,0.02
5,C90U U100C,0
6,A92U G114U,0.67
7,U91C U119C,1.4
8,G93A A94G,0.09
9,A94C U115A,0.1
10,A94G A107U,0.3
11,A92U A107G,0.94
12,C90U U104C,0.04
13,A94G U102A,0.27
14,U96A C110U,0.08
15,A92U U100C,0.9
16,A94G A138C,0.22
17,A94G A138U,0.36
18,A92G A129G,0
19,A94G U134C,0.44
20,A94G U134A,0.21
21,U91C U115A,0.56
22,U91C U115C,0.83
23,U91C U115G,0.69
24,G89A A140U,0.02

row,Variant,self-cleavage
1,A92G U112A,0.09
2,A92G U112C,0.13
3,A94G U115A,0.34
4,A94G U115C,0.45
5,U96A A138U,0.1
6,A92G U104C,0.05
7,A94U U109C,0.22
8,A92U G105A,0.77
9,C95A A129G,0.09
10,G89A U96C,0.07
11,A92C A124G,0
12,A92G A94G,0.12
13,A94U C131U,0.29
14,U87G U143C,0.18
15,U87G U143A,0.22
16,C95U A121G,0.33
17,A94U A141G,0.37
18,A94U A141U,0.42
19,A94U,0.29
20,A94C,0.06
21,A94G,0.31
22,U91A U119C,0.84
23,C90G U132C,0.05
24,G88A U108C,0.05

row,Variant,self-cleavage
1,A94U A140U,0.26
2,U91A U100A,0.56
3,G89A A94G,0.07
4,U91G A129U,0.05
5,C95A A142G,0.08
6,U96A C128U,0.07
7,U91C G127A,0.53
8,A92G A124U,0.09
9,A92U C146G,0.41
10,U91G A94G,0
11,G93A A141U,0.04
12,C90U U134C,0.04
13,U96A G122C,0.07
14,G89U A142U,0.04
15,A94U A138G,0.32
16,C95U G135A,0.17
17,A92U U119A,0.72
18,A92G A117G,0
19,A92G A117U,0.08
20,U91G,0.04
21,U91C,0.67
22,U91A,0.58
23,G89C A140U,0.05
24,A94C U134C,0.09

row,Variant,self-cleavage
1,C95A A136U,0.05
2,U91A A121G,0.84
3,A92C U109C,0
4,U91C A129G,0.47
5,G88U A142G,0
6,A92G U108C,1.11
7,U91C C99A,0.11
8,C90U U132C,0.03
9,C90U U132A,0.01
10,U96A G137A,0.12
11,A94G A136G,0.34
12,U91A U143G,0.56
13,U96A U112A,0.06
14,A92G U115A,0.12
15,A92G U102C,0.11
16,U91C U108A,0.55
17,G89A U115C,0.04
18,U87G U119G,0.3
19,G88A A124G,0.06
20,C90G A92G,0.03
21,C90U A136G,0.05
22,U87G U115C,0.03
23,A92U U143C,0.99
24,A92U U143A,0.6

row,Variant,self-cleavage
1,U91A C116U,0.53
2,A92G C98A,0.08
3,C95G U104C,0.02
4,C95A A121U,0.05
5,A92U A140G,0.53
6,A94G U104A,0.22
7,A92G G144A,0.09
8,G89A U100A,0.04
9,A92U U112C,0.48
10,C90G A121U,0.02
11,U96A G126A,0.07
12,U91C C95A,0.08
13,U91C A141G,0.92
14,G88A U115C,0.06
15,A94G A140U,0.33
16,G89A U119C,0.06
17,A94U U143C,0.24
18,A94U U143A,0.21
19,G89A A141U,0.02
20,G89A A141G,0.02
21,A92G C131G,0.22
22,A92C A141G,0.26
23,A94G A124G,0.06
24,U91G U108C,0

row,Variant,self-cleavage
1,G89A A117G,0.05
2,A94G U100A,0.21
3,A94G U100C,0.44
4,U91C A138U,0.6
5,G88A A92G,0.02
6,G93A G105U,0.02
7,G88A U132C,0.09
8,G89A U108C,0.04
9,C95U U130C,0.21
10,A92C A129G,0
11,C90U A117G,0.06
12,C95A U104C,0.08
13,G89A U143C,0.03
14,U91A A124G,0.33
15,A94G G125C,0.57
16,A92U G127A,0.39
17,U96A A136G,0.09
18,U96A A136U,0.09
19,C95U U100C,0.59
20,U96A A124G,0.06
21,G89U A92U,0.07
22,A94C U119C,0.1
